Assay: label from the status in PepcDB records
In the case of “MEESRESPAEHGYYMPAEWDSHAQTWIGWPERQDNWRHNALPAQRVFADVAKAISKFEPVTVCASPAQWENARKQLPEDIRVVEMSMNDSWFRDSGPTFIVRKRPVKLSSLNRNIAGIDWNFNAWGGANDGCYNDWSHDLLVSRKILALERIPRFQHSMILEGGSIHVDGEGTCLVTEECLLNKNRNPHMSKEQIEEELKKYLGVQSFIWLPRGLYGDEDTNGHIDNMCCFARPGVVLLSWTDDETDPQYERSVEALSVLSNSIDARGRKIQVIKLYIPEPLYMTEEESSGITQDGEAIPRLAGTRLAASYVNFYIANGGIIAPQFGDPIRDKEAIRVLSDTFPHHSVVGIENAREIVLAGGNIHCITQQQPAEPTSVAENGH”, the protein production is reported as “not failed”. With “MEEVLKLKIPASTANLGVGFDSIGMALDKYLHMSIRKIERSNWEFLYYSSELEGLPKDENNYIYQTALNVAHKYNVTLPSLQIEMRSDIPLARGLGSSASALVGALFIANYFGNIQLSKYELLQLATEIEGHPDNVAPTIYGGLIAGFYNPITKIT” the protein production was “failed”. With “MEFCPKCKSLMIYQGDKLVCRKCGYEKEADDSEELVIKVERNKEDVPVIEGENLKTLPTTKAICPACGHNEAFWWLRQLRAADESEVRFFRCTKCGKTWREYD” the protein production was “failed”. With “MEFEMLETETNGTIIKVIGVGGAGGNAVQHMINKGVQGVDFVVMNTDAQALSRSRAPSVIQLGNTGLGAGAKPEMGRAAAEEARERIADALRGAHMVFITAGMGGGTGTGAAPVVAQIAKEMGILTVGVVSKPFEFEGGKRMRVAEAGSQQLEDHVDSLIVVLNDKLFEVMGDDAEMDKCFQCADDVLNNAVAGIAEIINVDGLVNVDFEDVKTVMGEQGKAMMGTATVAGVDRARLAAEQAVASPLLEGVDLSGARGVLVNITSSRSLRLSETREVMNTIKSYAADDATVIFGAVYDDAMGDALRVTVVATGLGRAAKKQQSAPMTLLRTGTDNQPISAAPQGYAASHHVSTGDYGAFDTPAVWRNSRETAASHVQALQEKGVDTYDIPAFLRKQAD” the protein production was “not failed”. With “MEFTAEQLSQYNGTDESKPIYVAIKGRVFDVTTGKSFYGSGGDYSMFAGKDASRALGKMSKNEEDVSPSLEGLTEKEINTLNDWETKFEAKYPVVGRVVS” the protein production was “not failed”. In the case of “MEGALAANWSAEAANASAAPPGAEGNRTAGPPRRNEALARVEVAVLCLILLLALSGNACVLLALRTTRQKHSRLFFFMKHLSIADLVVAVFQVLPQLLWDITFRFYGPDLLCRLVKYLQVVGMFASTYLLLLMSLDRCLAICQPLRSLRRRTDRLAVLATWLGCLVASAPQVHIFSLREVADGVFDCWAVFIQPWGPKAYITWITLAVYIVPVIVLATCYGLISFKIWQNLRLKTAAAAAAEAPEGAAAGDGGRVALARVSSVKLISKAKIRTVKMTFIIVLAFIVCWTPFFFVQMWSVWDANAPKEASAFIIVMLLASLNSCCNPWIYMLFTGHLFHELVQRFLCCSASYLKGRRLGETSASKKSNSSSFVLSHRSSSQRSCSQPSTA”, the protein production is reported as “not failed”. For “MEGERMNAFPSTMMDEELNLWDFLERAAALFGRKEVVSRLHTGEVHRTTYAEVYQRARRLMGGLRALGVGVGDRVATLGFNHFRHLEAYFAVPGMGAVLHTANPRLSPKEIAYILNHAEDKVLLFDPNLLPLVEAIRGELKTVQHFVVMDEKAPEGYLAYEEALGEEADPVRVPERAACGMAYTTGTTGLPKGVVYSHRALVLHSLAASLVDGTALSEKDVVLPVVPMFHVNAWCLPYAATLVGAKQVLPGPRLDPASLVELFDGEGVTFTAGVPTVWLALADYLESTGHRLKTLRRLVVGGSAAPRSLIARFERMGVEVRQGYGLTETSPVVVQNFVKSHLESLSEEEKLTLKAKTGLPIPLVRLRVADEEGRPVPKDGKALGEVQLKGPWITGGYYGNEEATRSALTPDGFFRTGDIAVWDEEGYVEIKDRLKDLIKSGGEWISSVDLENALMGHPKVKEAAVVAIPHPKWQERPLAVVVPRGEKPTPEELNEHLLKAGFAKWQLPDAYVFAEEIPRTSAGKFLKRALREQYKNYYGGA”, the protein production was “not failed”. In the case of “MEGESVKLSSQTLIQAGDDEKNQRTITVNPAHMGKAFKVMNELRSKQLLCDVMIVAEDVEIEAHRVVLAACSPYFCAMFTGDMSESKAKKIEIKDVDGQTLSKLIDYIYTAEIEVTEENVQVLLPAASLLQLMDVRQNCCDFLQSQLHPTNCLGIRAFADVHTCTDLLQQANAYAEQHFPEVMLGEEFLSLSLDQVCSLISSDKLTVSSEEKVFEAVISWINYEKETRLEHMAKLMEHVRLPLLPRDYLVQTVEEEALIKNNNTCKDFLIEAMKYHLLPLDQRLLIKNPRTKPRTPVSLPK”, the protein production is reported as “not failed”. In the case of “MEGKEEDVRVGANKFPERQPIGTSAQSDKDYKEPPPAPFFEPGELSSWSFWRAGIAEFIATFLFLYITVLTVMGVKRSPNMCASVGIQGIAWAFGGMIFALVYCTAGISGGHINPAVTFGLFLARKLSLTRALYYIVMQCLGAICGAGVVKGFQPKQYQALGGGANTVAHGYTKGSGLGAEIIGTFVLVYTVFSATDAKRNARDSHVPILAPLPIGFAVFLVHLATIPITGTGINPARSLGAAIIYNKDHSWDDHWVFWVGPFIGAALAALYHVVVIRAIPFKSRS”, the protein production is reported as “failed”. With “MEGMDPLAVLAESRLLPLLTVRGGEDLLGLARVLEEEGVGALEITLRTEKGLEALKALRKSGLLLGAGTVRSPKEAEAALEAGAAFLVSPGLLEEVAALAQARGVPYLPGVLTPTEVERALALGLSALKFFPAEPFQGVRVLRAYAEVFPEVRFLPTGGIKEEHLPHYAALPNLLAVGGSWLLQGNLEAVRAKVRAAKALLSPQAPG” the protein production was “not failed”. With “MEGNKSLVVAHAQRCVVLRFLKFPPNKKKTSEEILQHLQNIVDFGKNVMKDFLGENYVHCGEVVQLPLEFVKQLCLKIQCERPESRCDKDLDTFSGYAMCLPNLTRLQTFHFAEHRPILCVEIKPKCGFIPFSNDVTHEMKHKVCRYCMHQHLKVATGKWKKISKYCPLDLYSGNKQRMHFALRSLLQETQNNLRIFKNGELIYGCGDARSPVADLKELAHHLKPFFFPSNGLASGPHCTKAVIRELVHVITRVLLSSSEKARAGALRLGLQGPRVCEASPFSRSLHNQGKNTSEHSGLPKGCLLYKTLQVQMLDQLDIEGLYPLYKRVEQYLEEFPEERKTLQIDGPYDEVFYQKLLDLSTEDDGTVAFALTKVQQYRVAMTAKDCSIMIALSPCLEHHHHHH” the protein production was “failed”. With “MEGQENKVLFGLENVHYATYSETDGVITYDTPKPLPGGVEISVEPQGDMIKFYADNIVYYQAPNNQGYEGTLTIASIPEGFATDCLGEELDTVDGVLTEKSDAKPKPFALLFEFDGDVKSVRQVLYNCTASRPTVASSTLEHHHHHH” the protein production was “not failed”. With “MEHDERTHVPVELRAAGVVLLNERGDILLVQEKGIPGHPEKAGLWHIPSGAVEDGENPQDAAVREACEETGLRVRPVKFLGAYLGRFPDGVLILRHVWLAEPEPGQTLAPAFTDEIAEASFVSREDFAQLYAAGQIRMYQTKLFYADALREKGFPALPV” the protein production was “not failed”. In the case of “MEHPLIRIVILAVLAYVGYALLCFLVQRTIIYPGRSLSVAGQPPDLPDIHPLWLTTPYGHVESWFLPATGSVAGDRRPVVLFFHGNGEVIDVLPDQAEGFRRMGMHVMLVEYPGYGRSGGSPSEEGITAAAVAAYDELVRRSDTDSGRMIAFGRSLGCGAACALSLRRPLAALILQSPFTSTRPFARQMLLPGFLARDVFDNRKALESYGGAVLILHGTEDDIIPVGHGRELARTVRRGCLIELRCGHNDCPPDWLEFWRIIEGFLEQEGVSGRK”, the protein production is reported as “failed”. In the case of “MEIFFTILILTLVVSLSGVVTRILPFQVPLPLMQIALGAILAWPQFGLHVDFNPELFMVLFIPPLLFADGWKTPTREFLRHGREIIGLALVLVLITVVGIGYFIYWMVPGMPLIAAFALAAVLSPTDAVALSGIVGEGRIPKKLMGILQGEALMNDASGLVSLKFAVAIAMGTMVFTVSGATLEFVQVALGGLLAGVGVTWIFGKSLRVISRWSGDDAATQIVLLLLLPFASYLIAEHIGVSGILAAVAAGMTIGQSGVIRSAPLTMRMRANGVWSMLEFVFNGMVFIMLGLQLPDILETSVTQAELDPTVETWMLFTDIAIIYGALLLLRFSWLWVMRTYSVHIQKKRPMVFAEFSTRELWIASFAGVRGAITLAGVLSIPLLLTDGTAFPSRYQLVFIATGVILFSLLCGVLALPFLLRGVVVADKAAHAKEIRMARMAVAEVAIKSMHKMEERLAADREENIDEQVLKEVSARVIGNLRRRLINKDDPENGLLIENLERRFRLTALNSERAELYHLRATQQISNETLQKMLRDLDLMEALLIENE”, the protein production is reported as “failed”. For “MEIHSERKKRLSLSLLFKIIKDTVWGFIDDSVMRLSASLAYATLFSIIPFLSLLVTVGVFFHMDLANQLYVQLQPIVGPEVTEALRSIIENAENTDSSRSAAFVSLGISILGATTIFAEIQSSLNSIWGIKAVPKKSWLKFIKNRILSFSIILVFAFILLITFTITNIIGELSQKFIFKYPEVADSLVKVVGIIINMSVTTIIFTLIFKILPDAKIKSKDVCIGAVVTTILLLIGQWGISFYIGIANVGTVYGAAAFMVVFVTWIYYSSIIIYTGAEFTKAWANEMGGKIFPDEYAVATKTIEIHEDKPIE”, the protein production was “failed”. For “MEIILNSGGTFVILAAVVGFFMAWGIGANDVANAMGTSVGSKALTIKQAIIIAMIFEFAGAYLAGGEVTSTIRKGIIDASYFVDSPELLVYGMISALFAAATWLLIASALGWPVSTTHSIVGAIVGFAAVGVSTDAVEWGKVVGIVGSWIITPLISGIIAFIIFNSAQKLIFDTDKPLQQAKRWVPAYMFLAGFVLSLVTIKKGLKHIGLENVNLGFVNFEIKGAGGFYLAAIVAIIVAIIGKFFISRLKFDENLAKEAHYVNVEKVFAILMIVTACAMAFAHGSNDVANAIGPLAAVVSIVEHDGQIAAKSAIAWWILPLGGFGIVAGLALFGHKVIATIGQGITHLTPSRGFAAELAAASTVVIASGAGLPISTTQTLVGAVLGVGMARGIAAINLGVVRNIVVSWVITLPVGAGLSIVFFWIMQATFS”, the protein production was “failed”. For “MEIINLTYIPLGVYNYYKSNNQEVKMQTIDISELELLTESENPVIVDVREDFEYNSGHVPNAKNIPLSQLEERYAEITDGTYLICQSGARSARACQYLSTKGIDTINISGGTIAWNGP”, the protein production was “failed”. For “MEIKPGLSALVTGGASGIGRALCLALAEKGVFVTVADFSEEKGQETTSLVREANAKFHQGLSFPSAIFVKCDVTNRGDLLAAFDKHLATFGTLDICINNAGISTPLRFDKDDTDGSKSWKHTINVDLIAVVEGTQLAIKAMKAKQKPGVIINMGSAAGLYPMPVDPIYAASKAGVVLFTRSLAYYRRQGIRINVLCPEFIKTDLAEAIDASILESIGGYMSMDMLIKGAFELITDEKKAGACLWITKRRGLEYWPTPMEETKYLVGSSSRKRPSFKVSTKIEFPQSFEKMIVHTLSHKFRSATRIVRAPLQLPIGPHQVLLKIIYAGVNASDVNFSSGRYFTGGSPKLPFDAGFEGVGLIAAVGESVKNLEVGTPAAVMTFGAYSEYMIVSSKHVLPVPRPDPEVVAMLTSGLTALIALEKAGQMKSGETVLVTAAAGGTGQFAVQLAKLSGNKVIATCGGSEKAKLLKELGVDRVIDYKSENIKTVLKKEFPKGVNIIYESVGGQMFDMCLNALAVYGRLIVIGMISQYQGEKGWEPAKYPGLCEKILAKSQTVAGFFLVQYSQLWKQNLDKLFNLYALGKLKVGIDQKKFIGLNAVADAVEYLHSGKSTGKVVVCIDPAFEQKTSRL”, the protein production was “failed”. For “MEISFTRVALLAAALFFVGCDQKPQPAKTHATEVTVLEGKTMGTFWRASIPGIDAKRSAELKEKIQTQLDADDQLLSTYKKDSALMRFNDSQSLSPWPVSEAMADIVTTSLRIGAKTDGAMDITVGPLVNLWGFGPEQQPVQIPSQEQIDAMKAKTGLQHLTVINQSHQQYLQKDLPDLYVDLSTVGEGYAADHLARLMEQEGISRYLVSVGGALNSRGMNGEGLPWRVAIQKPTDKENAVQAVVDINGHGISTSGSYRNYYELDGKRLSHVIDPQTGRPIEHNLVSVTVIAPTALEADAWDTGLMVLGPEKAKEVVRREGLAVYMITKEGDSFKTWMSPQFKSFLVSEKN”, the protein production was “not failed”.

Reference: a protein production outcome set (Wang et al. 2014)
